Experimental data taken from the DeepSol protein solubility set.

Assay: soluble on expression in E. coli; label from the status in PepcDB or PDB records

With “MGSDKIHHHHHHMLRKDIGIDLGTANTLVFLRGKGIVVNEPSVIAIDSTTGEILKVGLEAKNMIGKTPATIKAIRPMRDGVIADYTVALVMLRYFINKAKGGMNLFKPRVVIGVPIGITDVERRAILDAGLEAGASKVFLIEEPMAAAIGSNLNVEEPSGNMVVDIGGGTTEVAVISLGSIVTWESIRIAGDEMDEAIVQYVRETYRVAIGERTAERVKIEIGNVFPSKENDELETTVSGIDLSTGLPRKLTLKGGEVREALRSVVVAIVESVRTTLEKTPPELVSDIIERGIFLTGGGSLLRGLDTLLQKETGISVIRSEEPLTAVAKGAGMVLDKVNILKKLQGAG” the “soluble on expression in E. coli” value was “not soluble”.

With “MSGRSVRAETRSRAKDDIKKVMAATERVRRWEKKWVTVGDTSLRIFKWVPVTETKQIYKPKGAGPAVRELKGFPTDVVLENARSVLLDFQDDNSNQSFLSDAYQSNTKVDSSSNSSPQHVSEAVSPSHPPYYRTEDSQPPTLGQESMEAEREASTTSSEVTDEPPTLIKEDVLSLSTQEEEEAIGAPPLKRVCTEHNSTVS” the “soluble on expression in E. coli” value was “not soluble”.

With “GMDKLTHYRHTIQEIIKKYYDLSNSQPATATETKISDDLPDTVGDRLIIDEQRDQYLWLCCGWDGKKRVQHIILYLQIQNGKIWIEEDSTNLAIVDEMLVAGIPQTDIILGFHHPSKRGLTEFAIA” the “soluble on expression in E. coli” value was “soluble”.

With “MGSDKIHHHHHHMLAGGKMGDMKITRHIHACVEISQGNDRIIIDPGTFGAPDLCGATILVTHNHADHVDPELLKPGMTIYAPRSVAHSIPVECHIVEHGRNFTVGSLSVEVLGSEHAMLTHSMPIAENVGYLINGRVLHPGDTFQPIKDVELALVPVNGPWVKMLDVEGYLKKFPPKRFIGIHDGIVNDRGLAINKKFLTHLGETYGSEYSPLEEGESLEI” the “soluble on expression in E. coli” value was “not soluble”.

With “MSLSKRILSPLQNNGILGEFYGVIIRAIEENCGRLGMNVELKMLENFSESNGADGYIFIGGDLSEKTLKEIKSRKKPFVLVDHYIPGERVDCVISDGYDGAVYATNYLISKGFKRIVHVHGPLHPYGFKMRYDGYKDAMEKAGLMPRFYECDDTEEGTRKVIDIMLNSYGTPEAIFTSNDSIAFWVIKRLKEHNIKVPDDVSVIGFDDIVDAENFDPPLTTLRVFKYEMGCLACKRLHELLTGINPHPVRILVFTQFVKRKSTKEGHHHHHH” the “soluble on expression in E. coli” value was “soluble”.

For “MRKLFLLAIVLCVWSVVADAQESERRYIEVTGSSEIEVVPDEIHLLIQIKEYWKEEFVPKSKPEDYKTKVPLEWIEKDLRRVLSRAGISDEAIRVQEIGDYWRQKGKEFLIGKQLDIRFTDFEKINAVIKKIDTKGIESMRIGELKHKDLPNYRKQGKIEALKAAREKASYLVEAMGQKLGEVIRIVEPASSYVSPYSLYQAQSNVSMGTAATEQYRVITLRYEMTARFAIELEHHHHHH”, the “soluble on expression in E. coli” value was “soluble”.

For “MMTKYGVVGTGYFGAELARFMSKVEGAKITAIYDPVNAAPIAKELNCVATATMEALCSHPDVDCVIIASPNYLHKAPVIAAAKAGKHVFCEKPIALNYQDCKDMVDACKEAGVTFMAGHVMNFFHGVRHAKALIKAGEIGEVTQVHTKRNGFEDVQDEISWKKIRAKSGGHLYHHIHELDCTLFIMDETPSLVSMAAGNVAHKGEKFGDEDDVVLITLEFESGRFATLQWGSSFHYPEHYVLIEGTTGAILIDMQNTAGYLIKAGKKTHFLVHESQAEDDDRRNGNISSEMDGAIAYGKPGKRTPMWLSSIMKLEMQYLHDVINGLEPGEEFAKLLTGEAATNAIATADAATLSSNEGRKVKLTEILGLEHHHHHH”, the “soluble on expression in E. coli” value was “soluble”.

With “MKLTDYVKQVSLEDFGRPFIHHVQWNRRLRSTGGRFFPKDGHLDFNPKVYQELGLDVFRKIVRHELCHYHLYFQGKGYQHKDRDFKELLKAVDGLRFVPSLPNSNSKPIKLYRCQSCQQRYQRKRRIDTQRYRCGLCRGKLLLVNQPEDLEHHHHHH” the “soluble on expression in E. coli” value was “not soluble”.

In the case of “MGSDKIHHHHHHMKLHQLRALVAIHNAGSILEASKLMHITQPALSRSIKELEREVGFTLLQRSHKGMALTEEGKRVIRHANLVVESIRRLQIEAASIQDAALGAVSIGVTSLTAMLDGVDESILAFRRKYPRVKITITDLRPSQILQRLRDGSLDFAITSQQPLSRLSLDWEALGSIKGRVICHASNRQKFSQSLRTLQYAPWISLDELSDQASQFHQLFEANGLRVPQNTVECTSVMMALKLLKNTESLMTISELAVDQGFTYGIDCEFVAMAVQELIPDYPINLVCIDRHSLTAPAQELFHSLRGQVLKQTRPVGSEVVVHA”, the “soluble on expression in E. coli” value was “not soluble”.

For “MSLYMTIGRIFDLSVGKYPNKEALVEPEKNIRWTYKQWDEQINKTAHALLEEGVRKGDTVSVYLYNCHEFVNVYLACAKIGAIFNPINFRLKAKEVSYILQDASSKVVVFEKAVESTVAIIERDFPNTSFWSIENDKPSYASSYHEKVNEASSEKVNIEIDEMDYCSMLYTSGTTGHPKGVLHRHREMAEHSMICTYFLKYNRDSVGLVVAPLYHCGELNAGIIPRIQVGGKNVILHHFDTETVLHTIQEEKITTFFAAPTMWNMLLQKDLAQYDLTSMKIGIYGGAAMAPALVKECKERLYIDLVQIYGMTEMGPVVAFLVEEDQITKAGSAGTPCFSHEVRIVKPNEDAPAEPDDVLPPYEVGEIILRGPTMMAGYHNREEANKKSMYKGWYHSGDLGYFDKDGYLFVADRVDDMVISGGVNIYPREIEDFLHSHPGILDVAVLGEPDELWGERVVAVIVKKDETITEADLETYCKESDELADYKRPRHYLFVDELPRNASGKLQKFVLRESLKGAKEGHHHHHH”, the “soluble on expression in E. coli” value was “soluble”.

In the case of “MTAGFNFNNYAAGFCSATPALRGNEVNMDTLNLGNNESLVCGVFPNQDGTFTAMTYTKSKTFKTEAGARRWLARNTD”, the “soluble on expression in E. coli” value was “soluble”.

In the case of “EVVPLAFTKAATQPAPGVKPYNALQVAGRDIYIREGCYNCHSQMIRPFRAETERYGHYSVAGESVYDHPFQWGSKRTGPDLARVGGRYSDEWHRIHLLNPRDVVPESNMPAFPWLARNKVDVDATVANMKALRKVGTPYSDEEIAKAPEALANKSELDAVVAYLQGLGLALKNVR”, the “soluble on expression in E. coli” value was “not soluble”.

With “MKAKTDFFHMKQAGEPIVMVTAYDFPSAKLAEQAGVDMILVGDSLGMVVLGYDSTIPVTVDDMIHHTKAVRRGAPNTFIVTDMPFMSYHASKEEALQNARRIMQESGANAVKVEGADEVVDMIAALTKAGVPVVAHLGLTPQSVGVLGGYKVQGKDAESAKKLLDDAKQCEQAGAIALVLECVPKQLGAAMARELTIPVIGIGAGAEVDGQVLVYHDLLGYGVTRVPKFVKQYASIQETIVEALANYVADVKLRQFPEPAHTFTMKEEEWVALYGGKQG” the “soluble on expression in E. coli” value was “not soluble”.

With “IKDFSYGARFNLSDQKDKLVDYGVEYNGFVAGVNQKVQGYSLGSIFGYRTDGYFTSEEEVKNSAAFNKAITGVGDIKYIDKDGDGKISAPNDLEYLGTTTPRYTFGLNLTAAWKGFDLGVLLQGVGKRNFYLSSEVMNPYYATWNNFSYKMHNDYWTPENPNAAFPRYYAGANHNYQISDHWLQNAAYVRLKNLQLGYTISPKLTKSWGIQRLRVYFSGDNLCEYSKLNDNFDPELSDINGYVYPIMRNFSFGINVTL” the “soluble on expression in E. coli” value was “not soluble”.

In the case of “MSLVDIHSHIIPGIDDGSNSLETTLNMMSIAKEAGVTKMVATSHYYRGKFENSISVIEKKANELNYTLKEKGVDIDVIPGQEVFIDNYTLKDYKEGIIGTINNTDYMLVEFDMMSLGENAIDTLYELQIKGIKPIIAHPERYTYIQKDIYKINELMDENIYFQVNAGSIEGLFGKTVQKTALKLVEEGVISFIASDAHSAGKRCPGYEKALHDLTKIDKTLAEKFIKNSNLLLENEKIENKVRKLKKKKTFFSFLKEGHHHHHH”, the “soluble on expression in E. coli” value was “soluble”.

For “MQMAGFGLIAKLRNKIRVKPNNKIQIGKNTRIRYCDIYVNGNNNQLIIHNGANLKGVSIELNGNNCLLEIGENCVIGENCFLSCRESGTKLVIGKECMFSRNVKLMTSDGHDILRDGKRINPAKSIYIGSHVWLADNVTILKGVDIGSGSIIGINSTVTKSIGQYCIAAGNPARKIKDNISWNTTLSY”, the “soluble on expression in E. coli” value was “not soluble”.

For “MSERHGVQEATLRNWANLGYITSCRMGNQLFLDDESLTAYLEAHKRLGLQADYLAKIVEEKKLERDFIISRYDDLLYVLRTQKTCKPLYEIIIRELSQLIVHPGARDIFYSISMGESIEKVAGRHRITYDRALQIYNSHLRGLKVRKNVLATYRKHIIDARFQSLADKSKNINLNQEERVLQLSVGKVADTRLTNVLYKEEIRTVGQLLELVSGKGWRWLLKMEGVGRISYDRLLSNLQLAGVVDESLEQILSGRSDR”, the “soluble on expression in E. coli” value was “not soluble”.

In the case of “MGSDKIHHHHHHMIPRLELRSITKCYPGTVANDAVSLSILPGEIHAVLGENGAGKSTLMKIIYGAAQADSGEIYCDGRRIEAHNPAISRSLGIEMVYQHFALFESVSVVENIALAVKGTFDLDRLAAEIKTLSARYGMPIDPHRRVHDLSVGERQRVEIVRCLLQSPKLLILDEPTSVLTPQAVVKLFETLRQLASEGCSIVYISHKLDEVQELCDTATVLRNGKVTGTAKPKESTSLELARMMVGSQLPQMHVSPSAPSAKPLLEVRGLSAPARDKYGTELTDVSLEVHGGEIVGLAGVSGNGQAELIALLSGERTHPRAETILIGGRPSGHLNAGERRKLGMAFVPEERLGRGAVPPHALWENAVLTAHRAGLVRNALVDRRRAGEFARHIIERFKVKANGPQASAQSLSGGNLQKFIVGRELTLEPKILLVSQPTWGVDVGAAAFIRQTLVDLSRGGAAVLVVSEELDELFEICDRLLVISNGRVSPPLIRKQTNREEIGLLMTRVGHGETRRSEVALED”, the “soluble on expression in E. coli” value was “not soluble”.

For “MILLSKQTPLGAGRHRKCYTHPDNARRCIKVIYNRDHGGDKEIRRELSYYAHLSRYLTDWSAIPRYYGTVETDCGTGYVYDMITDFNGAPSITLTEFAAQCRYEEDVAVLRRLLKKLKRYLLDNHIVTMSLKPQNILCQRISESEVVPVVCDNLGESTFIPLATWSTWCCERKLERVWQRFIAQPALAVALERDAQPKDKKRLALTSHEALEHHHHHH”, the “soluble on expression in E. coli” value was “not soluble”.

For “MSLKKIANELGLSSTTVSRALNGYDDVAAETRERIIDAAKRLGYQPNSLARRLKMGRTDAIALAYPSRPRVLNNSTFLEMISWIGIELGKRGLDLLLIPDEPGEKYQSLIHLVETRRVDALIVAHTQPEDFRLQYLQKQNFPFLALGRSHLPKPYAWFDFDNHAGASLAVKRLLELGHQRIAFVSTDARISYVDQRLQGYVQTMSEAGLMPLAGYLQKADPTRPGGYLAASRLLALEVPPTAIITDCNMLGDGVASALDKAGLLGGEGISLIAYDGLPDDSLLDIAVTPIVQNTRTSVGKQIASMICDLLGGKDPKELQVLWQPEIGEGETEGHHHHHH”, the “soluble on expression in E. coli” value was “soluble”.

With “MGSDKIHHHHHHMQNQPPFIINSTYHREESKDIEFKSIASQHPVKKIVNHAEEYITGFLNALVEGQLYIGIDDAGKILGVKLSRSERDEIQKIIPNKLRNTDPIVSPSLYDIAFYNVLNEEQKDIEDLFVVNISVLGVDESQFYRTSSREYFLYKTTGGSTYLKTGTDCIKLNTTEIAQEIQKRKQKYLKQELDNIDDKLLQNPDNRSLLKEKANIAKLMGDIEKMDESYKRLINLNPNNSRTRVDYASAHKSIGDLEGALDILEDALKVDGDNLSILKTKGEILLGSDSSDKVKEAFQTYETALKLNPEDYTIITQIGIALRKLGKYKESIKVFNLALAKSPHYRAAKYEKRITYHKMFEGGIRI” the “soluble on expression in E. coli” value was “not soluble”.

In the case of “GSMTEADVNPKAYPLADAHLTKKLLDLVQQSCNYKQLRKGANEATKTLNRGISEFIVMAADAEPLEIILHLPLLCEDKNVPYVFVRSKQALGRACGVSRPVIACSVTIKEGSQLKQQIQSIQQSIERLLV”, the “soluble on expression in E. coli” value was “soluble”.
